Test results taken from the supplement of paper PMC11246515.
± gives the standard deviation of the averaged measurements.

Experiment: total protein half-life in vivo (active degradation + dilution); higher = more stable protein
[1] = E. coli NCM3722 delta-clpP delta-lon delta-hslV, growth: N-lim chemostat, doubling time 6 h
[2] = E. coli NCM3722 delta-clpP, growth: N-lim chemostat, doubling time 6 h
[3] = E. coli NCM3722 delta-hslV, growth: N-lim chemostat, doubling time 6 h
[4] = E. coli NCM3722 delta-lon, growth: N-lim chemostat, doubling time 6 h
[5] = E. coli NCM3722 delta-smpB, growth: N-lim chemostat, doubling time 6 h
[6] = wild type E. coli NCM3722, growth: C-lim chemostat, doubling time 3 h
[7] = wild type E. coli NCM3722, growth: C-lim chemostat, doubling time 12 h
[8] = wild type E. coli NCM3722, growth: N-lim chemostat, doubling time 6 h
[9] = wild type E. coli NCM3722, growth: N-lim chemostat, doubling time 12 h
[10] = wild type E. coli NCM3722, growth: P-lim chemostat, doubling time 6 h
[11] = wild type E. coli NCM3722, growth: P-lim chemostat, doubling time 12 h
[12] = wild type E. coli NCM3722, growth: C-lim chemostat, doubling time 6 h

Sequence	total protein half-life in vivo [1]	total protein half-life in vivo [2]	total protein half-life in vivo [3]	total protein half-life in vivo [4]	total protein half-life in vivo [5]	total protein half-life in vivo [6]	total protein half-life in vivo [7]	total protein half-life in vivo [8]	total protein half-life in vivo [9]	total protein half-life in vivo [10]	total protein half-life in vivo [11]	total protein half-life in vivo [12]
MAKMRAVDAAMYVLEKEGITTAFGVPGAAINPFYSAMRKHGGIRHILARHVEGASHMAEGYTRATAGNIGVCLGTSGPAGTDMITALYSASADSIPILCITGQAPRARLHKEDFQAVDIEAIAKPVSKMAVTVREAALVPRVLQQAFHLMRSGRPGPVLVDLPFDVQVAEIEFDPDMYEPLPVYKPAASRMQIEKAVEMLIQAERPVIVAGGGVINADAAALLQQFAELTSVPVIPTLMGWGCIPDDHELMAGMVGLQTAHRYGNATLLASDMVFGIGNRFANRHTGSVEKYTEGRKIVHIDIEPTQIGRVLCPDLGIVSDAKAALTLLVEVAQEMQKAGRLPCRKEWVADCQQRKRTLLRKTHFDNVPVKPQRVYEEMNKAFGRDVCYVTTIGLSQIAAAQMLHVFKDRHWINCGQAGPLGWTIPAALGVCAADPKRNVVAISGDFDFQFLIEELAVGAQFNIPYIHVLVNNAYLGLIRQSQRAFDMDYCVQLAFENINSSEVNGYGVDHVKVAEGLGCKAIRVFKPEDIAPAFEQAKALMAQYRVPVVVEVILERVTNISMGSELDNVMEFEDIADNAADAPTETCFMHYE [P0AEP7]	5.98 ± 0.97 h	3.5 ± 0.04 h	4.16 ± 0.24 h	3.51 h	3.85 ± 0.4 h	2.87 ± 0.1 h	7.8 ± 3.2 h	3.45 h	5.7 ± 0.37 h	5.49 ± 0.69 h	11.9 ± 2 h	–
MAKTAAALHILVKEEKLALDLLEQIKNGADFGKLAKKHSICPSGKRGGDLGEFRQGQMVPAFDKVVFSCPVLEPTGPLHTQFGYHIIKVLYRN [P0A9L5]	6.6 ± 0.64 h	4.65 ± 1.5 h	4.743 ± 0.043 h	6.25 ± 0.67 h	6.01 ± 0.7 h	3.05 ± 0.21 h	9.11 ± 0.34 h	4.22 ± 0.34 h	7.37 ± 0.48 h	4.54 ± 1.2 h	10.6 ± 0.12 h	5.57 ± 0.14 h
MAKTLYEKLFDAHVVYEAENETPLLYIDRHLVHEVTSPQAFDGLRAHGRPVRQPGKTFATMDHNVSTQTKDINACGEMARIQMQELIKNCKEFGVELYDLNHPYQGIVHVMGPEQGVTLPGMTIVCGDSHTATHGAFGALAFGIGTSEVEHVLATQTLKQGRAKTMKIEVQGKAAPGITAKDIVLAIIGKTGSAGGTGHVVEFCGEAIRDLSMEGRMTLCNMAIEMGAKAGLVAPDETTFNYVKGRLHAPKGKDFDDAVAYWKTLQTDEGATFDTVVTLQAEEISPQVTWGTNPGQVISVNDNIPDPASFADPVERASAEKALAYMGLKPGIPLTEVAIDKVFIGSCTNSRIEDLRAAAEIAKGRKVAPGVQALVVPGSGPVKAQAEAEGLDKIFIEAGFEWRLPGCSMCLAMNNDRLNPGERCASTSNRNFEGRQGRGGRTHLVSPAMAAAAAVTGHFADIRNIK [P0A6A6]	4.76 ± 0.36 h	1.53 ± 0.022 h	2.72 ± 0.34 h	3.63 ± 0.16 h	2.28 ± 0.034 h	1.877 ± 0.017 h	3.71 ± 0.57 h	2.9 ± 0.39 h	3.91 ± 0.068 h	2.32 ± 0.4 h	5.41 ± 0.32 h	3.17 ± 0.04 h
MAKVLVLYYSMYGHIETMARAVAEGASKVDGAEVVVKRVPETMPPQLFEKAGGKTQTAPVATPQELADYDAIIFGTPTRFGNMSGQMRTFLDQTGGLWASGALYGKLASVFSSTGTGGGQEQTITSTWTTLAHHGMVIVPIGYAAQELFDVSQVRGGTPYGATTIAGGDGSRQPSQEELSIARYQGEYVAGLAVKLNG [P0A8G6]	5.48 ± 0.11 h	5.53 ± 0.88 h	5.48 ± 0.15 h	5.7 ± 0.49 h	4.89 ± 0.052 h	3.227 ± 0.018 h	11.1 ± 1.1 h	5.31 ± 0.38 h	9.99 ± 1.1 h	5.69 ± 0.29 h	11.7 ± 0.32 h	5.98 ± 0.084 h
MAKVSLEKDKIKFLLVEGVHQKALESLRAAGYTNIEFHKGALDDEQLKESIRDAHFIGLRSRTHLTEDVINAAEKLVAIGCFCIGTNQVDLDAAAKRGIPVFNAPFSNTRSVAELVIGELLLLLRGVPEANAKAHRGVWNKLAAGSFEARGKKLGIIGYGHIGTQLGILAESLGMYVYFYDIENKLPLGNATQVQHLSDLLNMSDVVSLHVPENPSTKNMMGAKEISLMKPGSLLINASRGTVVDIPALCDALASKHLAGAAIDVFPTEPATNSDPFTSPLCEFDNVLLTPHIGGSTQEAQENIGLEVAGKLIKYSDNGSTLSAVNFPEVSLPLHGGRRLMHIHENRPGVLTALNKIFAEQGVNIAAQYLQTSAQMGYVVIDIEADEDVAEKALQAMKAIPGTIRARLLY [P0A9T0]	5.06 ± 0.26 h	4.512 ± 0.0057 h	3.75 ± 0.028 h	4.11 ± 0.16 h	4.09 ± 0.058 h	3.09 ± 0.13 h	11.5 ± 1.3 h	3.94 ± 0.12 h	5.84 ± 0.19 h	6.02 ± 0.23 h	11.8 ± 0.39 h	5.65 ± 0.34 h
MALAMKVISQVEAQRKILEEAVSTALELASGKSDGAEVAVSKTTGISVSTRYGEVENVEFNSDGALGITVYHQNRKGSASSTDLSPQAIARTVQAALDIARYTSPDPCAGVADKELLAFDAPDLDLFHPAEVSPDEAIELAARAEQAALQADKRITNTEGGSFNSHYGVKVFGNSHGMLQGYCSTRHSLSSCVIAEENGDMERDYAYTIGRAMSDLQTPEWVGADCARRTLSRLSPRKLSTMKAPVIFANEVATGLFGHLVGAIAGGSVYRKSTFLLDSLGKQILPDWLTIEEHPHLLKGLASTPFDSEGVRTERRDIIKDGILTQWLLTSYSARKLGLKSTGHAGGIHNWRIAGQGLSFEQMLKEMGTGLVVTELMGQGVSAITGDYSRGAAGFWVENGEIQYPVSEITIAGNLKDMWRNIVTVGNDIETRSNIQCGSVLLPEMKIAGQ [P0AFK0]	4.58 ± 0.36 h	4.28 ± 0.05 h	4.07 ± 0.065 h	4.34 ± 0.1 h	4.12 ± 0.032 h	3.39 ± 0.57 h	9.13 ± 0.67 h	4.27 ± 0.28 h	6.45 ± 0.34 h	5.5 ± 0.28 h	10.09 ± 0.033 h	5.59 ± 0.52 h
